Results from publication PMC4086254.
Values joined by “and” are separate entries in the source; they are usually repeats but may differ in a detail not shown here. Equal entries are not always repeated. Where two headings read alike, the source gives them in different places.

Tests used:
[1] = target: rabbit muscle G-actin (actin monomers; ATP-G-actin or ADP-G-actin) (rabbit) (UniProt P68135); test: shift of the apparent critical concentration of pyrene-actin
[2] = target: rabbit muscle G-actin (actin monomers; ATP-G-actin or ADP-G-actin) (rabbit) (UniProt P68135); test: as above; remark: listed apart in the source

Kd [1]	Kd [2]	Substance
830 nM	–	MBP-CAS-2 (full-length CAS-2, cyclase-associated protein-2, fused to maltose-binding protein) (natural protein)
2900 nM and 830 nM	–	MBP-CAS-2N (N-terminal half of CAS-2, residues 1-207, fused to maltose-binding protein) (domain or fragment)
1700 nM and 1200 nM	3600 nM and 2900 nM	MBP-CAS-2CΔWH2 (C-terminal half of CAS-2 lacking WH2, residues 275-457, fused to maltose-binding protein) (domain or fragment)
1700 nM and 2900 nM	1000 nM and 950 nM	MBP-CAS-2C (C-terminal half of CAS-2, residues 208-457, fused to maltose-binding protein) (domain or fragment)
